According to doi:10.1101/2020.04.06.028423 (bioRxiv, 2020):

T1: His-tagged VP35 IID (VP35 aa 215-340) (Ebola virus (EBOV), UniProt Q05127 215-340)
T1 sequence: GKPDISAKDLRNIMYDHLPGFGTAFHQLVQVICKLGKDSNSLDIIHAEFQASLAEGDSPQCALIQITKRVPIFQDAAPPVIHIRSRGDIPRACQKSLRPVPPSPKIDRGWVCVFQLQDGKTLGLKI

B1: GST-NP(412-500) (domain or fragment)
chain: ASLPKTSGHYDDDDDIPFPGPINDDDNPGHQDDDPTDSQDTTIPDVVVDPDDGSYGEYQSYSENGMNAPDDLVLFDLDEDDEDTKPVPN

Target: T1, His-tagged VP35 IID (VP35 aa 215-340)
Experiment: pull-down

Row | Binder | binding result
1 | B1 | binds
2 | DDLVLFDLDEDDEDTKPVPN (domain or fragment) [GST-NP(481-500)] | binds
3 | DDLVLFDLDEDDED (domain or fragment) [GST-NP(481-494)] | binds
